Data as given in paper PMC9300677.

Key:
[1] = target: microtubules of Tuba4aΔpolyGlu (p/p) mice, containing mutant Tuba4a without C-terminal polyglutamylation (mouse (endogenous in hippocampal neurons and hippocampus)) (UniProt P68368); test: soluble-tubulin extraction assay (TX-100 extraction); DIV15 hippocampal neurons extracted 90 s at 37 °C in MT-extraction buffer (80 mM PIPES pH 6.9, 0.3% Triton X-100, 150 mM NaCl); soluble and in-soluble (polymerized microtubules with associated MAPs) fractions compared by western blot
[2] = target: GSK3β (UniProt Q9WV60); test: soluble-tubulin extraction assay, western blot quantification; details: DIV15 neurons; n = 4 independent cultures per genotype; parent: est. 1.5; read off a plot
[3] = target: GSK3β (UniProt Q9WV60); test: microtubule pelleting assay, western blot quantification; details: re-polymerization of hippocampal tubulin from adult mice; n = 3 mice per genotype; parent: est. 0.40; read off a plot
[4] = target: GSK3α (UniProt Q2NL51); test: as above; details: re-polymerization of hippocampal tubulin from adult mice; n = 3 mice per genotype; parent: est. 0.30; read off a plot
Chain of UniProt Q2NL51 (Q2NL51 whole entry, looked up): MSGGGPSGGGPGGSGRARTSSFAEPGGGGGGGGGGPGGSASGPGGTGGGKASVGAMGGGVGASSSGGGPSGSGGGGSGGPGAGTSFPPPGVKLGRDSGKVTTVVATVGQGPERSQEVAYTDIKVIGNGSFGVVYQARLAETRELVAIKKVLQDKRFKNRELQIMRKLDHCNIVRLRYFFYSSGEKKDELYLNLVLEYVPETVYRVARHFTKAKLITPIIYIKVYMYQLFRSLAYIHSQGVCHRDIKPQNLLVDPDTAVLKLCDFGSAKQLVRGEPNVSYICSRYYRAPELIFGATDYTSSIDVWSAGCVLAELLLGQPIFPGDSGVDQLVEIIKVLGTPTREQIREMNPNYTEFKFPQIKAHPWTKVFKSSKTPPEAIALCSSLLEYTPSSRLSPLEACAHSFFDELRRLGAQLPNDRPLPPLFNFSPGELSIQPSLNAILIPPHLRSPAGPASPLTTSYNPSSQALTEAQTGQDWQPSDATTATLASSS

Chain of UniProt Q9WV60 (Q9WV60 whole entry, looked up): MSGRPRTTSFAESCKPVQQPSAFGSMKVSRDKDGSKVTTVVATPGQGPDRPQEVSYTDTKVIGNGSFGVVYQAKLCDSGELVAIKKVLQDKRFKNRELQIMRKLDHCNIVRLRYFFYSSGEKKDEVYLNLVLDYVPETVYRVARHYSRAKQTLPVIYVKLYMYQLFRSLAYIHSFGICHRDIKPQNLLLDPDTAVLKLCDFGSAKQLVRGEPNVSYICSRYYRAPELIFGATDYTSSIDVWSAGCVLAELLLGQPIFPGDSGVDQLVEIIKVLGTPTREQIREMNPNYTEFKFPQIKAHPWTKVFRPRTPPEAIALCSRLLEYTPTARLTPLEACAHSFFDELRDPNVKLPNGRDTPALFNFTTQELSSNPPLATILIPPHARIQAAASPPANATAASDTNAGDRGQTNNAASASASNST
Chain of UniProt P68368 (P68368 whole entry, looked up, stated change not applied): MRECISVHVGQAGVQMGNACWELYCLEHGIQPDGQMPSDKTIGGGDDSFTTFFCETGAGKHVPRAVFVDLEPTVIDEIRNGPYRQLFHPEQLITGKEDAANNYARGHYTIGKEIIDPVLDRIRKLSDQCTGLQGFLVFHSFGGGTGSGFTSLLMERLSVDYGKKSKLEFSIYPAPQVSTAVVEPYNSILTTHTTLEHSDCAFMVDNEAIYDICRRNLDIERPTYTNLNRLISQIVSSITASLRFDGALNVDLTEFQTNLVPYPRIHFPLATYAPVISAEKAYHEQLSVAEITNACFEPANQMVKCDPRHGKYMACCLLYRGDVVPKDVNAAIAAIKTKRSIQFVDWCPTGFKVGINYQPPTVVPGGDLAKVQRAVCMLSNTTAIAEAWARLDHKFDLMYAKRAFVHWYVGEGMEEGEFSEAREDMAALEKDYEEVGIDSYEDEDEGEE

| Substance | reduction of co-occurrence with microtubules in the in-soluble fraction against wild type (+/+) [1] | other: in-soluble / soluble ratio [2] | other: pellet / supernatant ratio [3] | other: pellet / supernatant ratio [4] |
| --- | --- | --- | --- | --- |
| MAP2a/b (from UniProt P20357 1-1828) (natural protein) | > 50% | – | – | – |
| Tau (mouse, endogenous) (from UniProt P10637 1-733) (natural protein) | > 50% | – | – | – |
| microtubules of wild-type (+/+) mice, containing polyglutamylated Tuba4a (from UniProt P68368;Q9ERD7) Tuba4aΔpolyGlu (p/p) | – | 0.73 | 0.15 | 0.15 |
